Test results: the domain aggregation screens of Martell et al. (2025)

Assay: soluble fraction after stress (log2 fold change); higher = more stays soluble; pooled small domains, quantitative proteomics
Settings: stress: 75 degC
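Note: 20 min heating vs room temperature control held 20 min.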

Sequence	soluble fraction (log2)
HMSSARKVTVRGVRELPGIFMEKAEILDDGVRFFYRGEMEKLIGALQGLPIRDLTITEPDLEEVFLHFY	-1.48
HMSSASETQYELALQAMRDGDNDAALRSLSTALASGFSDWQRIDEEPLLAALANDVRFQVLRSRWK	0.0593
HMSSDLVDYLVKYVAIVDNQEIEIADSKIGTAELGTTVSEVAKTVGNYYPKATVLSVKITGRNQEIVFEY	-2.91
HMSSEPYISLPRGAAHDAYPLSTKAVAAQLGMSEVWLANLRSKGKGPRYVRVGTRVFYSPEDVAQWRRAT	-1.18
HMSSESIIIKKLIEEFIHNENKYSPLSDEKLSYLLKNKGFSVARRTVAKYRDELGILSTRERKIKI	-1.76
HMSSEYARFFSGNYYEVLGVAKNASYDEIKAAWKKLVKEYHPDLHPQRQEEFTKIIQKINEAYEYFKKMH	-0.583
HMSSFFLIDVSQVRIGMYIQLDVGWMRHPFPVNSFRITNQEQLDTLRSLNLAQVRWSPAKSDL	-3.64
HMSSFIEAIKQSGTDSLDVIMKNGRVYRYVGIDADRLGYLLEPHQQKLSLEESIGRFYIDYIKGIYEAIE	-1.47
HMSSGNLESLLNKLHNEDYFVRLDAVKALGALGDPGAIDYLIEMLSENGIMRGWVANSLAALGEAQWKKII	-2.22
HMSSHSAEAVRHRIKSMIDHEARDGDVLSDDRIVELLNQAGIDIARRTVAKYREALRIPSSVERKRRLKA	-0.163
HMSSKRDQFIVLGQEILEKMFKNEGLEFSEKGLLAVMPNFEAESINDIYAKVGEGLISGWDVMKAVYPAY	-0.311
HMSSKSLAALSPQEYRLLPLVAEGKTNKEIASALALSDKTVKNYLANIFSKLGITRRTQAATLYARAL	-0.338
HMSSKYLKIYNDIVGKIDSGIFEANTKLPSESQLMDEYNVSRYTVRKSLNLLEQNGYIEKSKGKGSFVLDM	-1
HMSSLQFVTLTLMEGHAWVGREIQELLMPPQMRIALIRRGDSQVIPKGSTILESADELILSAIEYQG	-4.48
HMSSLREQVADALRAHLVSGRMRPGVLYSAPKLAAEFGVSATPVREAMLDLVSEGLVDVVRNKGFRVT	-0.597
HMSSPPNPQLAKRYISYSVDDIARLFGIHRHTVREWIKRGLPVIDQQRPLLVQGADLAEFLRKRRA	-0.948
HMSSPVIQINTRNDGWIIKLLQPAVEKDVLEGYLADVGLKLQSQMMEKILAAPAGTEFHIKRGSNILTE	-0.291
HMSSQADEEALFKLLAANPYSDEQLEEIRIAIGSGIAYKDIIRIADIGNTAERMKQLRLEFTKDTAN	0.173
HMSSQGSLEKGYSALLDGRLDDAALAYGAALAANPMERDALLGLAYVAHSKGRREEAQALYRKVLR	-0.303
HMSSSTFVGRVAVITIGEARQNSPAEARFKDRHGTTHYVMVEPMEDVVFKQGDKVLLVESAGATFKVIEPA	-1.58
HMSSTSISFNDFQKYWLSNDIKSFQLREDKMTVQGSLKNGTAYETVVPSERLFQFIGQHPKD	0.863
HMSSVDLLSERERQVLARISRGMSNEEIAAELAITPRTVRNHLANIYGKIDVHSRAEAVVWARERGIT	-0.362
HMSSVEQAILETLSKEHSHLTSLQVFEEIRGRLPAVNQSTVYRALERLVEQGVVSVSDMGTHAAVYE	-0.197
HMSSVMMPDLTGESAIVAMERLQQLGLLPKVEEVDSYREPGIVLEQLPRAGEKIKRGRIAILKVSS	-0.0579
HMSSVTGMERFLSSGAVKGIGKTMAARIVEHFGTETMTVLESFPERLAEVPGIGAKKAEAIGQSYSEISD	0.158
HMSSVVARRARIATLVVETSVASQEELGRLLADEGITVTQATLSRDLDALGAVKVLSADGGTRYRIPGQ	-1.87
HMSSVVVARTWTDTTGDFKVEAELLGVEGGLVRLKKEDGTVLSVPIAKLSTADRTFLQENQP	0.00842
HMSSWEDNFSYWIRNVAETLDKDLLNVANSKLEKIIINAALDQTNGKKNEAAILLGLGRNTLAKKIKELG	-0.799
HMSSWEEQLKIWAKNELASGNTDILARATVSFEQILIEAALTHTGGRKKTAAELLGWGRNTLTRKIKELHI	0.0904
HMSSWEVLAEPIQTVMRRYGVPGAYEKLKEVTRGKSLTAEALHALIRSLDIPQADKERLLALTPAAWA	-1.34
